Source: paper PMC6368601

Biological target: taxol-stabilized microtubules polymerized from bovine brain tubulin dimers (bovine) (UniProt Q6B856)
Assay: co-sedimentation; 100 nM ISB (WT, MTBM or Δ20) with various concentrations of taxol-stabilized microtubules; BRB80, 1 mM DTT, 50 mM NaCl, 20 uM paclitaxel; 15 min at room temperature; 50% glycerol cushion, 279,000 x g; blot with anti-Borealin; apparent Kd from a one-site specific binding fit of three experiments

| Substance | Kd |
| --- | --- |
| INCENP^1-58-Survivin-Borealin complex (ISB^WT), centromere-targeting region of human CPC (from UniProt Q9NQS7 1-58; O15392 1-142; Q53HL2 1-280) | 164 nM |
| ISB^Δ20: INCENP^1-58-Survivin-Borealin lacking the N-terminal 20 amino acids of Borealin (from UniProt Q9NQS7 1-58; O15392 1-142; Q53HL2 21-280) (complex) | 750 nM |
